As usually defined, the Kd is the free concentration of one partner at which half of the binding sites on the other are occupied at equilibrium, for simple one-to-one binding. The term koff denotes the rate constant with which the complex falls apart. What is called kon is a measure of how fast the partners come together. As usually defined, the EC50 is the concentration needed to bring the measured effect to its halfway point. For orientation: IC50 means the concentration that gives 50% inhibition.

For experiment [1], the target named is T1, Cynomolgus PD-1 (soluble analyte in SPR, Table 11) (cynomolgus, UniProt B0LAJ3 25-170).
T1 construct: also called cyno PD-1
Description: SPR Biacore 8K; antibody captured on anti-human Fc chip, PD-1 injected; 1:1 fit. The protocol:
(§1) Antibody binding affinity to human, mouse and cynomolgus PD-1 was detected using Biacore 8K. W3056-AP17R1-2H2-Z1-R1-14A1-FC (IgG4.SP) was captured on an anti-human Fc IgG antibody immobilized CM5 sensor chip (GE). Human, mouse and cynomolgus PD-1 at different concentrations were injected over the sensor chip at a flow rate of 30 uL/min for an association phase of 120 s, followed by 150 s dissociation. The chip was then regenerated by 10 mM Glycine pH 1.5 after each binding cycle.
(§2) The sensorgrams of blank surface and buffer channel were subtracted from the test sensorgrams. The experimental data was fitted by 1:1 model using Langmiur analysis. Molecular weight of 40, 45 and 40 kDa was used to calculate the molar concentration of analyte human, mouse and cynomolgus PD-1 respectively.

Experiment [2] addresses T2, Mouse PD-1 (soluble analyte in SPR, Table 11) (mouse, UniProt Q02242 25-167, limits assumed).
T2 sequence (looked up): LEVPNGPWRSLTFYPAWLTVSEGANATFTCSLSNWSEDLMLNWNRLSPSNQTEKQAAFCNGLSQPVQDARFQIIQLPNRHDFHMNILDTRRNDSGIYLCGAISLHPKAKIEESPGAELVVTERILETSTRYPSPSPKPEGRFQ
Described as above. The protocol:
as §1, §2

The target in experiment [3] is Human PD-1 (soluble analyte in SPR, Table 11) (human, UniProt Q15116 25-167). The description is as above. The protocol: as §1, §2
For experiment [4], the target named is T3, Cynomolgus monkey PD-1 on transiently transfected 293F cells (cynomolgus monkey).
T3 construct: whole, on cells; also called cell surface cynomolgus PD-1; cyno PD-1
Description: FACS on cyno PD-1 transfected 293F cells, experiment 2. As for the experimental part: Cynomolgus monkey PD-1 (GenBank Accession No. NP_001271065.1) transient transfected 293F cells (2×10⁵ cells/well) were incubated with various concentrations of anti-PD-1 antibodies (3-fold serially diluted from 133.4 nM to 0.008 nM) at 4° C. for 1 hour. After washing with 1×PBS/1% BSA, the secondary antibody PE-labeled goat anti-human IgG was applied and incubated with cells at 4° C. for 1 hour. Anti-human PD-1 antibodies BMK1 and BMK3 were used as positive control. Human IgG4 isotype antibody was used as negative control. The cells were then washed and re-suspended in 1×PBS/1% BSA. MFI of the cells was measured by a flow cytometer and analyzed by FlowJo (version 7.6.1).

Experiment [5] deals with T4, Cynomolgus PD-1 extracellular domain, hFc tag (cynomolgus, UniProt B0LAJ3 25-170).
T4 construct: Bought; also called cynoPro1.ECD.hFc; cyno PD-1 ECD protein
Description: ELISA competition on coated cynoPro1.ECD.hFc; competitor cynoProL1.ECD.hFc.biotin 2.5 µg/mL; experiment 2. As for the experimental part:
Plates were pre-coated with 1 μg/mL, 100 μL per well of cyno PD-1 ECD protein (cynoPro1.ECD.hFc) at 4° C. overnight. After 1-hour blocking using 200 μL of 1×PBS/2% BSA, constant concentration of biotinylated cyno PD-L1 (cynoProL1.ECD.hFc.biotin) (2.5 μg/mL) and various concentrations of testing antibody, positive and negative control (3-fold serially diluted from 133.4 nM to 0.007 nM) were pre-mixed and added to the plates. The plates were incubated at ambient temperature for 1 hour. The binding of ligand to the immobilized protein was detected by streptavidin-HRP. The color was developed by dispensing 100 μL of TMB substrate, and then stopped by 100 μL of 2M HCl. The absorbance was read at 450 nm and 540 nm using a microplate spectrophotometer.

T1 sequence (B0LAJ3 entry or part of it limits assumed): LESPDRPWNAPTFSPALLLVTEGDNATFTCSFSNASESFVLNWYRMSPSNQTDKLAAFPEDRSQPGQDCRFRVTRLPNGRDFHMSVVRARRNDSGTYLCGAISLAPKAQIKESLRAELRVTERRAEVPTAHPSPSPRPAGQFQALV
Chain of Human PD-1 (soluble analyte in SPR, Table 11) (Q15116 25-167 limits assumed): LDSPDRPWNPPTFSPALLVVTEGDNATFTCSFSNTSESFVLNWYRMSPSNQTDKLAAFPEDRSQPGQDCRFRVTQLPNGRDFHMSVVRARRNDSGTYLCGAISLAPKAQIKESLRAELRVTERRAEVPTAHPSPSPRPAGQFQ
T4 sequence (B0LAJ3 entry or part of it limits assumed): as the sequence (B0LAJ3 entry or part of it limits assumed) above

B1: W3056-AP17R1-2H2-Z1-R1-14A1-FC(IgG4.SP) (Fc fusion)
chain: QVQLVESGGGVVQPGGSLRLSCAASDSIDSLVNMGWYRQAPGKQRELVALIATYITHYADFVKGRFTISRDNSKNTLYLQMNSLRAEDTAVYYCYARNIIVDYWGQGTLVTVSS
notes: also called W3056 lead antibody (VHH-Fc(hIgG4) fusion); not shown: Fc of human IgG4 (hIgG4.S228P)
On to B1, for which, in experiment [1], the affinity, expressed as Kd, was 8.53 nM; the off-rate constant (koff) came to 0.00177 s⁻¹; the kon was 208000 M⁻¹ s⁻¹. In experiment [2], this molecule had a dissociation constant (Kd) of 28.7 nM, a koff of 0.00422 s⁻¹ and a kon of 147000 M⁻¹ s⁻¹. Also, in experiment [3], the dissociation constant Kd came to 3.45 nM, the off-rate (koff) was found to be 0.000857 s⁻¹ and the on-rate constant (kon) amounted to 248000 M⁻¹ s⁻¹. In experiment [4], this molecule had a half-maximal effective concentration (EC50) of 1.98 nM. In experiment [5], this molecule gave a concentration for half-maximal inhibition (IC50) of 0.853 nM.

Values taken from US20240301067A1 (WUXI BIOLOGICS IRELAND, published 2024).
